The values below come from the supplement of paper PMC12764529.

Series [1] is described as follows: folding stability dG unfold from trypsin proteolysis; higher = more stable. In short, it runs like this:
(§1)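 Sequencing followed digestion of designed mini-proteins with trypsin and chymotrypsin, each at 11 concentrations in threefold dilutions together with a no-protease condition. The mini-proteins were under 80 residues, had no cysteine, sat in a PA-tagged cDNA display construct, and were kept only if AlphaFold2 dimer inter-PAE was above 15. From the counts, Bayesian fitting gave K50, and unfolding free energy was derived against a sequence-predicted unfolded-state K50 and a shared folded-state K50, per protease or combined.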

A short description of series [2]: folding stability dG unfold (combined trypsin and chymotrypsin); higher = more stable. The method, boiled down:
as §1

Series [3] in a line: folding stability dG unfold from chymotrypsin proteolysis; higher = more stable. In short, it runs like this:
as §1

± gives the half width of the 95% confidence interval.

Take “SAGGSAGGSSPVRMVATIPLPDGTTITVEAEIVRLPDGTILIKTPSGEIIEVPPDVPVEFFPESAGGSAGGS [r20_227_JUSTAS]”: the results for the “folding stability dG unfold” value in series [1], in series [2] and in series [3] were 1.78 ± 0.057 kcal/mol, 2.23 ± 0.054 kcal/mol and 2.45 ± 0.052 kcal/mol, respectively.
Taken in the same sequence, the figures for “SAGGSAGGSSSYSVPDSSSVTLETTVTITFPSSSVGGSPASSGPVAFTVPVKVTVSVTNPGVASAGGSAGGS [r12_668_JUSTAS]” were 1.18 ± 0.029 kcal/mol, 1.02 ± 0.14 kcal/mol and 0.532 ± 0.18 kcal/mol.
Consider “SAGGSAGGSSTATFTLSRLPDGTYRLTLYDPSTNKVTTEEVPASRPDEYSAVTVSSDGTVTTASAGGSAGGS [r20_11_JUSTAS]”, for which the results for the “folding stability dG unfold” value in series [1], in series [2] and in series [3] were 0.771 ± 0.076 kcal/mol, 0.662 ± 0.095 kcal/mol and 0.338 ± 0.11 kcal/mol, respectively.
As for “SAGGSAGGSSTTPVTITVPESILDEIKKKAEELGIKVEVEIKESPENKKYATVTIEIPENVELSAGGSAGGS [r12_653_JUSTAS]”, the “folding stability dG unfold” value was 0.935 ± 0.081 kcal/mol in series [1], 0.509 ± 0.14 kcal/mol in series [2] and -0.248 ± 0.25 kcal/mol in series [3].
As to “SAGGSAGGSSVIEVTFSDGSKALFFPGSQKVVVYNPSTKKKIVIPPGVSPETALKAIAEGKPISAGGSAGGS [r12_832_TrMRF]”, the results for the “folding stability dG unfold” value in series [1], in series [2] and in series [3] were 0.91 ± 0.056 kcal/mol, 0.671 ± 0.13 kcal/mol and 0.185 ± 0.073 kcal/mol, respectively.
Consider “SAGGSAGGSSVLEVDPETGITVAVQDPSTGRYYVRNPEGEIREFDSPEEIREAFGRPVNFKTAPSAGGSAGG [r6_753_JUSTAS]”, for which the “folding stability dG unfold” value in series [1] was 0.559 ± 0.018 kcal/mol; in series [2], 0.753 ± 0.057 kcal/mol; in series [3], 0.787 ± 0.082 kcal/mol.
Turning to “SAGGSAGGSSYTVSEDPNSSSTTITDPVTGRTVLRSPSSWTVVDPETGEEKSFPAGTVVTLPESAGGSAGGS [r12_584_JUSTAS]”, the “folding stability dG unfold” value was -0.146 ± 0.13 kcal/mol in series [1], 0.724 ± 0.042 kcal/mol in series [2] and 1.06 ± 0.056 kcal/mol in series [3].
For “SAGGSAGGSTIDITLPDLDEEEIREYLKELFPDVEVTIEYDPSTNTYTLKVGGDEVVVTRLPPNSAGGSAGG [r6_609_JUSTAS]”, the “folding stability dG unfold” value in series [1] came to 3.25 ± 0.086 kcal/mol; in series [2] it was 3.43 ± 0.057 kcal/mol; in series [3], 3.43 ± 0.038 kcal/mol.
On to “SAGGSAGGSTLKLEIVNEDGYKVEIEAELELVEKDGKLVLKLKVKIKVEPAKEVKEVKVELPESAGGSAGGS [r12_581_TrROS_Hall]”, for which the “folding stability dG unfold” value was 1.95 ± 0.16 kcal/mol in series [1], 3.45 ± 0.44 kcal/mol in series [2] and 3.87 ± 0.2 kcal/mol in series [3].
The matching figures for “SAGGSAGGSVEKLKKALEKLGIKVENVKIEVKTNKNGKKTVTIYVNGKKLSKEEIKKALKEIKSAGGSAGGS [r12_175_TrROS_Hall]”: 2.99 ± 0.23 kcal/mol, 4.24 ± 0.44 kcal/mol and 4.46 ± 0.33 kcal/mol.
On to “SAGGSAGGSVESATTTITITASLTPEEVEEIIEELKKKGLNVKKVEIEREPETGSVTITVTVNPSAGGSAGG [r6_514_JUSTAS]”, for which the “folding stability dG unfold” value in series [1] came out at 3.2 ± 0.1 kcal/mol; in series [2], 3.14 ± 0.093 kcal/mol; in series [3], 2.92 ± 0.075 kcal/mol.
Taken in the same sequence, the figures for “SAGGSAGGSVKITTEPDPNGYYRVTVTIRLNDKPIPVDMPFPPGKTPDQVKEKARDIAKELLKSAGGSAGGS [r12_69_TrROS]” were 0.249 ± 0.089 kcal/mol, 0.455 ± 0.091 kcal/mol and 0.546 ± 0.13 kcal/mol.
The matching figures for “SAGGSAGGSVKPGQEIEVRVELTYDEETGELTIRREVVNKETGELIAEEEITISLEDLPPELLSAGGSAGGS [r12_145_TrROS_Hall]”: 1.83 ± 0.083 kcal/mol, 1.63 ± 0.076 kcal/mol and 1.51 ± 0.04 kcal/mol.
The matching figures for “SAGGSAGGSVRIPGGQPNTKVTVTVRLPDGTPVEVEATVNPSGEITLDLPDVSPDLIESIELSSAGGSAGGS [r12_477_JUSTAS]”: 1.14 ± 0.019 kcal/mol, 0.82 ± 0.038 kcal/mol and 0.478 ± 0.027 kcal/mol.
With “SAGGSAGGSWGTISIRIEFNFMAFDPGLGQFSMFPMEVYISIPIEIPPPPPPPKPKYDNGKPKSAGGSAGGS [r12_140_TrROS]”, the entries for the “folding stability dG unfold” value in series [1], in series [2] and in series [3] were 2.6 ± 0.28 kcal/mol, 3.78 ± 0.29 kcal/mol and 4.52 ± 0.21 kcal/mol, respectively.
Taken in the same sequence, the figures for “SAGGSAGGSWITPEWIEEIARYLARELGIDDVKIEVERRPDGYVTVEIRNPANGRKVEITVPWSAGGSAGGS [r12_1000_TrROS]” were 3.38 ± 0.14 kcal/mol, 3.16 ± 0.19 kcal/mol and 3.06 ± 0.1 kcal/mol.
Taken in the same sequence, the figures for “SAGGSAGGSWIWVIKIENPEKGREYTFFIPGPLEDIKDHIREWNPDPDVKVEIQRIPVSPEAFSAGGSAGGS [r12_92_TrROS]” were 1.68 ± 0.054 kcal/mol, 1.89 ± 0.094 kcal/mol and 2.11 ± 0.096 kcal/mol.
Taken in the same sequence, the figures for “SAGGSAGGSYLDPNKVYLVETEVVGDKVVFTLRDPETGETFVLEADASKEVLKPGDRVLALVASAGGSAGGS [r12_525_TrMRF]” were 1.47 ± 0.047 kcal/mol, 1.82 ± 0.12 kcal/mol and 1.97 ± 0.065 kcal/mol.
